Measurements: patent publication US20040022767A1 (Genentech, published 2004)

Tests used:
[1] = molecular target: T1, soluble hek/Fc fusion protein (human, UniProt P29320 21-541; P01857 99-330 = IgG part, limits assumed); test: indirect Scatchard analysis; hek/Fc titrated on transfected CV-1/EBNA-1 cells, detected with 125I-mouse anti-human IgG
T1 construct: extracellular domain;domain: Fc region (hinge to native C-terminus); The extracellular domain and the dimeric state are inferred from that analogy

[2] = molecular target: T2, soluble rat elk/Fc fusion protein (rat; human, UniProt P09759 18-540; P01857 99-330 = IgG part, limits assumed); test: indirect Scatchard analysis, biphasic, first component; elk/Fc titrated on transfected CV-1/EBNA-1 cells, detected with 125I-mouse anti-human IgG
T2 construct: extracellular domain;domain: Fc region (hinge to native C-terminus)

[3] = molecular target: T2, soluble rat elk/Fc fusion protein; test: indirect Scatchard analysis, biphasic, second component; elk/Fc titrated on transfected CV-1/EBNA-1 cells, detected with 125I-mouse anti-human IgG
[4] = molecular target: T2, soluble rat elk/Fc fusion protein; test: indirect Scatchard analysis; elk/Fc titrated on transfected CV-1/EBNA-1 cells, detected with 125I-mouse anti-human IgG
From the text: CV1-EBNA-1 cells (described in Example 3) in 12-well plates (2.5×10⁵ cells/well) were transfected with an expression vector containing the clone E7 elk-L cDNA. The mammalian expression vector, designated pDC410, is similar to pDC406 (McMahan et al., EMBO J. 10:2821, 1991). In pDC410, the EBV origin of replication of pDC406 is replaced by DNA encoding the SV40 large T antigen (driven from an SV40 promoter). The pDC410 multiple cloning site (mcs) differs from that of pDC406 in that it contains additional restriction sites and three stop codons (one in each reading frome). A T7 polymerase promoter downstream of the mcs facilitates sequencing of DNA inserted into the mcs. The transfected cells were cultured for two days to permit expression of the elk-L protein, then washed with BM-NFDMv (the binding medium described in Example 2, also containing 50 mg/ml nonfat dry milk), and incubated with various concentrations of the elk/Fc fusion protein prepared in Example 1, for 1 hour at 37° C. Subsequently, cells were washed and incubated with a constant saturating concentration of the ¹²⁵I-labeled mouse anti-human IgG antibody prepared in Example 2 (40 ng/ml) in binding medium with gentle agitation for 1 hour at 37° C. Cells then were harvested by trypsinization. […]

[5] = molecular target: T1, soluble hek/Fc fusion protein; test: indirect Scatchard analysis, biphasic, first component; hek/Fc titrated on transfected CV-1/EBNA-1 cells, detected with 125I-mouse anti-human IgG
[6] = molecular target: T1, soluble hek/Fc fusion protein; test: indirect Scatchard analysis, biphasic, second component; hek/Fc titrated on transfected CV-1/EBNA-1 cells, detected with 125I-mouse anti-human IgG

T1 sequence (P29320 other isoform, or with tags, fused parts or gaps limits assumed): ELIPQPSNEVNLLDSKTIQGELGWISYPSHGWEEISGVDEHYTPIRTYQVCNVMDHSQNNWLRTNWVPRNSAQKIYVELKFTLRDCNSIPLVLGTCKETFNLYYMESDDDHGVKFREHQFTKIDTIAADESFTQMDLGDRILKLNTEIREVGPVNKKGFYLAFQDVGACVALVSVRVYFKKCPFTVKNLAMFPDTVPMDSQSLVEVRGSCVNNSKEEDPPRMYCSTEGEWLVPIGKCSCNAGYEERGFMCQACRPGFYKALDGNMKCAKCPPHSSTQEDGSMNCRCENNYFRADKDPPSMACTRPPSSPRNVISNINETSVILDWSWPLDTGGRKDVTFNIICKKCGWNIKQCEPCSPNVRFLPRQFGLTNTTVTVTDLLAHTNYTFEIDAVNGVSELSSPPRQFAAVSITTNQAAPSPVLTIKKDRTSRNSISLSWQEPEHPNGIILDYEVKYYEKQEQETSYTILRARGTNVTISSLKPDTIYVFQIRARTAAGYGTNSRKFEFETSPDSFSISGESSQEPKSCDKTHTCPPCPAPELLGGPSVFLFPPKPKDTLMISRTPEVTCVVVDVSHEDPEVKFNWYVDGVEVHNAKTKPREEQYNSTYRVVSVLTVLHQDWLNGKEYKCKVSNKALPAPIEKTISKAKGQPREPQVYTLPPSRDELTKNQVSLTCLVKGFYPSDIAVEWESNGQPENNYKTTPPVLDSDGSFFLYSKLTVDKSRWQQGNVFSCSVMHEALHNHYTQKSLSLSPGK
T2 sequence (P09759 other isoform, or with tags, fused parts or gaps limits assumed): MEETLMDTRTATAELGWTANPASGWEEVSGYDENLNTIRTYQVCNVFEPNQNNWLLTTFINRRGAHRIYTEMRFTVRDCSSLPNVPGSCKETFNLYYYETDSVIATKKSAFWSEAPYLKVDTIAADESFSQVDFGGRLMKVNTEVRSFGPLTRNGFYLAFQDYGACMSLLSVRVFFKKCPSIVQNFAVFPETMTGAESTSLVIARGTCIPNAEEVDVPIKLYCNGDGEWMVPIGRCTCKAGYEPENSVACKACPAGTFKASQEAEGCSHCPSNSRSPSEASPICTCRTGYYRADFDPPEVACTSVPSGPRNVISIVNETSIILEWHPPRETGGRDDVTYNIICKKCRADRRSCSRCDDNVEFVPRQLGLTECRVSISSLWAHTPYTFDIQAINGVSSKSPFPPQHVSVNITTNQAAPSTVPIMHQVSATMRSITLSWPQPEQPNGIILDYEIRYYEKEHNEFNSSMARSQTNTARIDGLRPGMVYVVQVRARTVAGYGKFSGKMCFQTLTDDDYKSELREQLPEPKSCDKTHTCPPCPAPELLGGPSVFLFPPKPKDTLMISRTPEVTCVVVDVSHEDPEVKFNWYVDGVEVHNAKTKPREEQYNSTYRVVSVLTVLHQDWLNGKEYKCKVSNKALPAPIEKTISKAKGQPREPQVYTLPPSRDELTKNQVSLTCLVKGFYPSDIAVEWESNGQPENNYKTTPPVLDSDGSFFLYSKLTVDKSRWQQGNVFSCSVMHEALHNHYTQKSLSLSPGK

Binder	Ka [1] [M⁻¹]	Ka [2] [M⁻¹]	Ka [3] [M⁻¹]	Ka [4] [M⁻¹]	Ka [5] [M⁻¹]	Ka [6] [M⁻¹]
B61 protein expressed on transfected CV-1/EBNA-1 cells (ligand, human, UniProt P20827 19-182, looked up, whole, on cells) DRHTVFWNSSNPKFRNEDYTIHVQLNDYVDIICPHYEDHSVADAAMEQYILYLVEHEEYQLCQPQSKDQVRWQCNRPSAKHGPEKLSEKFQRFTPFTLGKEFKEGHSYYYISKPIHQHEDRCLRLKVTVSGKITHSPQAHDNPQEKRLAADDPEVRVLHSIGHS	5.5e+07	2.3e+08	7e+07	–	–	–
human elk ligand (elk-L), clone E7, expressed on transfected CV-1/EBNA-1 cells (ligand) ATPLAKNLEPVSWSSLNPKFLSGKGLVIYPKIGDKLDIICPRAEAGRPYEYYKLYLVRPEQAAACSTVLDPNVLVTCNRPEQEIRFTIKFQEFSPNYMGLEFKKHHDYYITSTSNGSLEGLENREGGVCRTRTMKIIMKVGQDPNAVTPEQLTTSRPSKEADNTVKMATQAPGSRGSLGDSDGKHETVNQEEKSGPGASGGSSGDPDGFFNSKVALFAAVGAGCVIFLLIIIFLTVLLLKLRKRHRKHTQQRAAALSLSTLASPKGGSGTAGTEPSDIIIPLRTTENNYCPHYEKVSGDYGHPVYIVQEMPPQSPANIYYKV	–	–	–	1.08e+09	2.3e+07	2.9e+06
hek-L protein designated A2, expressed on transfected CV-1/EBNA-1 cells (ligand, UniProt P52797 23-214, looked up, whole, on cells; also called hek-L A2; hek ligand A2) QGPGGALGNRHAVYWNSSNQHLRREGYTVQVNVNDYLDIYCPHYNSSGVGPGAGPGPGGGAEQYVLYMVSRNGYRTCNASQGFKRWECNRPHAPHSPIKFSEKFQRYSAFSLGYEFHAGHEYYYISTPTHNLHWKCLRMKVFVCCASTSHSGEKPVPTLPQFTMGPNVKINVLEDFEGENPQVPKLEKSISG	2e+08	2.7e+08	3.5e+07	–	–	–
hek-L protein designated C6, expressed on transfected CV-1/EBNA-1 cells (ligand, UniProt P52798 26-170, looked up, whole, on cells; also called hek-L C6; hek ligand C6) LRHVVYWNSSNPRLLRGDAVVELGLNDYLDIVCPHYEGPGPPEGPETFALYMVDWPGYESCQAEGPRAYKRWVCSLPFGHVQFSEKIQRFTPFSLGFEFLPGETYYYISVPTPESSGQCLRLQVSVCCKERKSESAHPVGSPGES	2e+08	1.3e+08	5.4e+07	–	–	–
